Test results: US20240141062A1 (published 2024)

Experiments:
[1] = target: T1, human CD38 on tumor cells (human, UniProt P28907 1-300); assay: flow cytometry on Raji-CD47KO cells
T1 construct: whole, on cells; Endogenous CD38 of the cell lines; also called CD38 on Raji-CD47KO cells

human CD47 on cells = target: T2, human CD47 on cells (human, UniProt Q08722 19-323); assay: flow cytometry on human red blood cells
T2 construct: whole, on cells; Endogenous CD47 of the cells; also called CD47 on Daudi cells; CD47 on RBCs

binding result [1]: binds
binding result (human CD47 on cells): binds
B1: BEAT CD38/CD47-60 (bispecific antibody, human IgG1, kappa)
heavy 1: EVQLVESGGGLIQPGGSLRLSCAASGFTLSRNTMHWVRQAPGKGLEWVSVIYQSGVTRYADSVKSRFTISRDNSKNTLYLQMNSLRAEDTAVYYCARGRYGVAGGPGYAFDVWGQGTLVTVSSASTKGPSVFPLAPSSKSTSGGTAALGCLVKDYFPEPVTVSWNSGALTSGVHTFPAVLQSSGLYSLSSVVTVPSSSLGTQTYICNVNHKPSNTKVDKKVEPKSCDKTHTCPPCPAPELLGGPDVFLFPPKPKDTLMISRTPEVTCVVVDVSHEDPEVKFNWYVDGVEVHNAKTKPREEQYNSTYRVVSVLTVLHQDWLNGKEYKCKVNNKALPAPEEKTISKAKGQPREPAVYTLPPSREEMTKNQVKLVCLVTGFYPSDIAVEWESSGQPENNYYTTPPMLDSDGSFSLVSWLNVDKSRWQQGNIFSCSVMHEALHNRFTQKSLSLSPG
heavy 2: not shown
light: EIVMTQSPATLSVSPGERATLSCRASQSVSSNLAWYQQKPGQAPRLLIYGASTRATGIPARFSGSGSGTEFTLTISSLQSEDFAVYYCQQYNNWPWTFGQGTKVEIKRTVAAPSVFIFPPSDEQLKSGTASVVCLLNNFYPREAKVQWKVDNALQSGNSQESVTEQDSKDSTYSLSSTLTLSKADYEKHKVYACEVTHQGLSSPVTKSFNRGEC
notes: 2+1 biparatopic BEAT: anti-CD47-H2 arm on BEAT (A); BEAT (B) carries Fc distal anti-CD38-B6-D9 and Fc proximal anti-CD38-E2-RecA Fabs; BEAT (A): S239D + I332E + S324N, BEAT (B): S324N; also called BEAT CD38/47-60; BEAT 38/47-60
